Data from paper PMC9282010 (Molecular Biology of the Cell, 2022).

B1: Qa(JxR): Vam3 with the juxtamembrane region of Nyv1 and its own TM (other)
chain: MSFFDIEAQSSKGNSQQEPQFSTNQKTKELSNLIETFAEQSRVLEKECTKIGSKRDSKELRYKIETELIPNCTSVRDKIESNILIHQNGKLSADFKNLKTKYQSLQQSYNQRKSLFPLKTPISPGTSKERKDIHPRTEAVRQDPESSYISIKVNEQSPLLHNEGQHQLQLQEEQEQQQQGLSQEELDFQTIIHQERSQQIGRIHTAVQEVNAIFHQLGSLVKEQGEQVTTIDENISHLHDNMQNANKQLTRADEIMWWQKVKKVTLIIIIVVCMVVLLAVLS
B2: R(JxQa): Nyv1 with the juxtamembrane region of Vam3 and its own TM (other)
chain: MKRFNVSYVEVIKNGETISSCFQPFQKNENYGTITSANEQITPVIFHNLIMDMVLPKVVPIKGNKVTKMSMNLIDGFDCFYSTDDHDPKTVYVCFTLVDMPKILPIRILSGLQEYESNATNELLSSHVGQILDSFHEELVEYRNQTLNSSGNGQSSNGNGQNTISDIGDATEDQIKDVIQIMNDNIDKFLERQERVSLLVDKTSQLNSSSNKFRRKAVNIKQHQRDRNKCGNITLLTFTIILFVSAAFMFFYLW
B3: Vti1, the vacuolar Qb-SNARE (wild type, membrane-anchored) (natural protein)
chain: MSSLLISYESDFKTTLEQAKASLAEAPSQPLSQRNTTLKHVEQQQDELFDLLDQMDVEVNNSIGDASERATYKAKLREWKKTIQSDIKRPLQSLVDSGDRDRLFGDLNASNIDDDQRQQLLSNHAILQKSGDRLKDASRIANETEGIGSQIMMDLRSQRETLENARQTLFQADSYVDKSIKTLKTMTRRLVANKFISYAIIAVLILLILLVLFSKFK

How the values were obtained:
Assay in all cases: co-IP
[1] = biological target: B3
[2] = biological target: B1
[3] = biological target: T1, Vam3, the vacuolar Qa-SNARE (wild type) (yeast, UniProt Q12241 1-283)
T1 sequence: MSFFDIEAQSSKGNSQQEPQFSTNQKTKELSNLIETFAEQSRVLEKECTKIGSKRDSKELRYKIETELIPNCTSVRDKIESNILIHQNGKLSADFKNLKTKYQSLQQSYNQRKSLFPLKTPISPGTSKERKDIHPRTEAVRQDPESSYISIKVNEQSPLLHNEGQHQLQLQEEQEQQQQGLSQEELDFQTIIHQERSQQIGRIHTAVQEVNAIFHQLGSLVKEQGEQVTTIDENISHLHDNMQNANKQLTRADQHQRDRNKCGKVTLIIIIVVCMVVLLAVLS

B1: binds [1].

B2: binds [2].

B3: binds [3].
